B1: Hammerhead Ribozyme (parent)
chain: ACCGGAUGUGCUUUCCGGUCUGAUGAGUCCGUGAGGACGAAACAG

This data set covers variants of B1. Briefly: self-cleavage, relative activity (ratio to wild type); higher = more cleavage; co-transcriptional.
For ACCGGAUGUGCUUUACGGUCUGAUGAGUCCGUGAGGACGAAACUG, the self-cleavage stood at 0.441.
Next, ACCGGAUGUGCUUUCCGGUCCGAUGAGUCCGUGAGGACGAAACAC: 0.416.
ACCGGAUGUGCUUGCCGGUCUGAUGAGUUCGUGAGGACGAAACAG: the self-cleavage was 0.625.
Consider ACCGCAUGAGCUUUCCGGUCUGAUGAGUCCGUGAGGACGAAACAG, for which the self-cleavage was determined as 0.595.
Then ACCGGAUGUGCCUUCCGGUCGGAUGAGUCCGUGAGGACGAAACAG, with 0.609; and ACCGGAUGUGCUUUCCGGUCUGGUGAGUCCGCGAGGACGAAACAG, with 0.375.
For the variant ACCGGAUGUGCUUUCCGGUCUGAUGAGUCCGGGAGGGCGAAACAG, the self-cleavage amounted to 0.448.
For UCCGGAUGUGCUUUCCGGUCUGAUGCGUCCGUGAGGACGAAACAG, the self-cleavage worked out at 0.402.
Then ACCGGAUGCGCUUUCCGGUCUGAUGAUUCCGUGAGGACGAAACAG, with 0.505; and ACGGGAUGUGCUUUCCGGUCUGAUGAGUCCGUGAGGGCGAAACAG, with 0.334; and ACGGGAUGUGCUUUCCGGUCUGAUGAGUCCGUGAGGCCGAAACAG, with 0.293.
Consider ACCGGAUGUGCUUUCCGGACUGAUGAGUCCGUGAGGACGAAUCAG, for which the self-cleavage stood at 0.378.
For the variant ACCGGACGUGCUUUCCGGUCUGAUGAGUCCGUGAGGACGAUACAG, the self-cleavage was 0.336.
For the variant ACCGGCUGUGCUUUCCGGUCUGAUGAGUCCGUGAGAACGAAACAG, the self-cleavage is 0.391.
Consider ACCGGAUGUGCUUUCCGGUCGGAUGAGUCCGUGAGGACGAAACGG, for which the self-cleavage came out at 0.697.
Take AACGGAUGUGCUUUCCGGUCUGAUGAGUCCAUGAGGACGAAACAG: the self-cleavage stood at 0.969.
ACCGGAUGUGCUUUCCGGUCUGAUCAGUUCGUGAGGACGAAACAG: the self-cleavage worked out at 0.235.
ACCGGAUGUGCUUUCCGGUGUGAUGAGUCUGUGAGGACGAAACAG: the self-cleavage was determined as 0.255.
Then CCCGGAUGUGCUUUCCGGUCAGAUGAGUCCGUGAGGACGAAACAG, with 0.343.
Turning to ACCGGAUGUGCUUUCCGGUCUGAUGAGUCCGUGAGGACGAGCCAG, the self-cleavage stood at 0.294.
In the case of ACCGGACGUGCUUUCAGGUCUGAUGAGUCCGUGAGGACGAAACAG, the self-cleavage came out at 0.738.
In the case of ACCGGAUGUGCAUUGCGGUCUGAUGAGUCCGUGAGGACGAAACAG, the self-cleavage was 0.85.
On to ACCGGAUGUGCUUGCGGGUCUGAUGAGUCCGUGAGGACGAAACAG, for which the self-cleavage is 0.476.
Then ACCGGAUGUGCUUUCCGGUCUGAUGAGUCCGUGGAGACGAAACAG, with 0.675; and ACCGGAUGUGCUUUCCGGUCUUAUGAGUCCGUGAGGACGAUACAG, with 0.353.
Take ACCGGAUGUGCUUUCCGGUCUGAUGAGUUCGUGAGGACGAUACAG: the self-cleavage worked out at 0.337.
On to AGCGGAUGUGCUUUCCGUUCUGAUGAGUCCGUGAGGACGAAACAG, for which the self-cleavage turned out to be 0.669.
For the variant AGUGGAUGUGCUUUCCGGUCUGAUGAGUCCGUGAGGACGAAACAG, the self-cleavage is 0.36.
As for ACCAGAUGUGCUUUCUGGUCUGAUGAGUCCGUGAGGACGAAACAG, the self-cleavage stood at 0.781.
Next, ACCGGAAGUGCUUUCCGGUCUGAUGAGUCCGUGAGUACGAAACAG: 0.585; ACCGGAUGUGCUUUCCGGUCUGAUGAGUCCGUGAGGACGAACGAG: 0.271.
Next, ACCGGAUGUGCUUUCCGGUCUGAUGAAUCCGUGAGGACGGAACAG: 0.341; ACCGGAUGUGCUUUCCGGUCUCAUGAGUCCGUCAGGACGAAACAG: 0.381; ACCCGAUGUGCUUUCCGGUCUAAUGAGUCCGUGAGGACGAAACAG: 0.297.
Turning to ACCGGUUGUCCUUUCCGGUCUGAUGAGUCCGUGAGGACGAAACAG, the self-cleavage was determined as 0.522.
Turning to ACCGGAUGCGCUUUCCGGUCUGAUGAGUCCGUGAGGCCGAAACAG, the self-cleavage turned out to be 1.03.
Then ACCGGAUGUGCUUUCCGGUCUGAUGAGUCCGUGAGGACGAUUCAG, with 0.244; and ACGGGAUGUGCUUUCCGGUCUGAUGAGUCCGUGAGGAAGAAACAG, with 0.279; and ACCGGAUGUGCUUUCCGGUCUGAUGAGUCCAUGAGGGCGAAACAG, with 0.978.
Consider ACCGGAUGUGCGUUCCGGUCUGCUGAGUCCGUGAGGACGAAACAG, for which the self-cleavage stood at 0.459.
ACCGGAUGUGCAUUCCGGUCUGAUGAGUCCGUGAGGACGAAACAU: the self-cleavage stood at 0.67.
As to ACCGGAUGUGCUUUCCGGUAUGAUGAGUCCGUGAGGACGAAAAAG, the self-cleavage stood at 0.321.
On to ACCGGAUGUGCUUUCCGGUCUGAUGAGUCCGUUAGGACGAUACAG, for which the self-cleavage was determined as 0.361.
Next, ACCGGAUGUGCUUUCCCGUCUCAUGAGUCCGUGAGGACGAAACAG: 0.326.
Regarding ACUGGAUGUGCUUUCCGGUCUGAUGAGUCCGUGAGUACGAAACAG, the self-cleavage is 0.491.
Then ACCGGAUGCGCUUUCCGGUCUGAUGAGUCCGUGAGGACGAAGCAG, with 0.332; and ACCGGAUGUGCUUUCCGGUCUCAUGAGUCCGUGAGGACUAAACAG, with 0.286.
Then ACCGGAUGUGCUUUCCGAUCUGAUGAGUCCGUGAGGACGAGACAG, with 0.37; and ACCGGAUGUGUUUUCCGGUCUGAUGAGUCCGUGAGCACGAAACAG, with 0.499.
Turning to ACCGGAUGUGCUUUCCGGUCUGAUGAGUCCGGGAGGACGAUACAG, the self-cleavage was 0.318.
Take ACCGGAUGUGCUUUCCGGUCUGAAGAGUCCGUGAGGACGUAACAG: the self-cleavage was found to be 0.359.
On to ACCGGAAGUGCUUUCCGGUCUGAUGGGUCCGUGAGGACGAAACAG, for which the self-cleavage is 0.221.
Take UCCGGAUGUGCUUUCCGGUCCGAUGAGUCCGUGAGGACGAAACAG: the self-cleavage came out at 0.379.
For the variant ACCGGAUGUGCUUUCCGGUCUGAUGAGUCCGGGAGGACGAAACAA, the self-cleavage amounted to 0.56.
For UCCGGAUUUGCUUUCCGGUCUGAUGAGUCCGUGAGGACGAAACAG, the self-cleavage turned out to be 0.728.
For the variant ACCAGAUGUGCUUUCCGGUCUGAUGAGUCCGGGAGGACGAAACAG, the self-cleavage turned out to be 0.436.
With AUCAGAUGUGCUUUCCGGUCUGAUGAGUCCGUGAGGACGAAACAG, the self-cleavage came to 0.361.

The record behind these values is the RNAGym collection of RNA variant scans (doi:10.7554/elife.80360).
